Columns and labels:
[1] = molecular target: N-terminally biotinylated human Aβ1-40 peptide (human); test: SPR (Biacore 2000), periplasm diluted 15x over hAβ1-40 surface (blank control)
[2] = molecular target: N-terminally biotinylated human Aβ1-40 peptide (human); test: ELISA, ABD periplasm captured on anti-ABD, 2 nM biotinylated hAβ1-40

Sequence of N-terminally biotinylated human Aβ1-40 peptide (human) (peptide, as listed by the source): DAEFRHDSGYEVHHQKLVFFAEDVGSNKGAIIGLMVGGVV

Response RU [1]: 2 RU
ELISA response (absorbance 450 nm) [2]: 0.063 AU
Substance: ABD (albumin binding domain GA3 from streptococcal Protein G), periplasm control (from UniProt P19909 254-299)
